According to article PMC4763187:

Substrate: O=C(O)C(=O)O
Assay: purified protein
Conditions: pH 8.0, 5 mM ATP, 0.5 mM CoA, 10 mM MgCl2, 2 mM DTT, oxalate up to 400 μM

B1: MtAAE3 (Medicago truncatula Acyl Activating Enzyme 3; oxalyl-CoA synthetase) (Medicago truncatula) (protein)
chain: ETATTLTGLLQSVAEKFPSRRAISVAGKFDLTHSQLHELVESAANHLISAGIKPNDVVALTFPNTIEYVIMFLAVIRVRATAAPLNAAYTSEEFEFYLSDSESKLLLTPLEGNNPAQTAATKLNIPLGSVCFNKTEEETKLSISLNQTESANSVSELINEPSDVALFLHTSGTTSRPKGVPLSQHNLVSSVRNIESVYRLSELDSTVIVLPLFHVHGLIAGLLSSLGAGGAVALPAAGRFSASTFWKDMIQYNATWYTAVPTIHQIILDRHQSNPEPVYPKLRFIRSCSASLAPVILGRLEEAFGAPVLEAYAMTEATHLMCSNPLPEDGPHKAGSVGKPVGQEMAILDESGRVLEADVNGEVCIKGENVTKGYKNNEEANKSAFLFGWFHTGDIGYFDSDGYLHLVGRIKELINRGGEKISPIEVDAVLLGHQDVAQAVAFGVPDQKYGEEIHCAIIPREGSNIDAEEVLKYCKTNLTSFKVPKKVFITDSLPKTATGKILRRLVAEHFVSQA
B1 showed a Km of 81.0 ± 8.1 µM.
